Tested on: primary myeloma cells from myeloma patients
Experiment: T cell mediated killing of primary myeloma patient samples by anti-BCMA/CD3 bispecific (flow cytometry live cell count)
Assay type: cell-based, human
Conditions: Patient MM00146; anti-BCMA_h2B4 bispecific; five days after treatment
Description: Human anti-BCMA (P5A2, A02_Rd4_0.6 nM_C01, A02_Rd4_6 nM_C16, Combo_Rd4_0.6 nM_C29, and P6E01 L3PY/H3TAQ) and human anti-CD3 (h2B4) antibodies were expressed as human IgG2dA engineered with EEEE or RRRR for bispecific exchange as describe in Example 8.
Cells were treated with 10-fold serially diluted bispecific antibody. […] EC50 was calculated by Prism software.

B1: P5A2: anti-BCMA_H2B4 bispecific, human IgG2dA: anti-BCMA arm P5A2, anti-CD3 arm H2B4 (antibody, V domains shown)
VH: EVQLLESGGGLVQPGGSLRLSCAASGFTFSSYAMNWVRQAPGKGLEWVSAISDSGGSTYYADSVKGRFTISRDNSKNTLYLQMNSLRAEDTAVYYCARYWPMDIWGQGTLVTVSS
VL: EIVLTQSPGTLSLSPGERATLSCRASQSVSSSYLAWYQQKPGQAPRLLMYDASIRATGIPDRFSGSGSGTDFTLTISRLEPEDFAVYYCQQYGSWPLTFGQGTKVEIK
EC50: 946 pM
